Results taken from patent publication US9340596.

Legend:
Experiment in all cases: cell-based or functional assay
αVβ3 integrin (human) = αVβ3 integrin (human) (UniProt P06756)
αVβ5 integrin (human) = αVβ5 integrin (human) (UniProt P06756)
death receptor = target: death receptor

αVβ3 integrin (human), sequence (P06756 31-1048, chain 1 of 2): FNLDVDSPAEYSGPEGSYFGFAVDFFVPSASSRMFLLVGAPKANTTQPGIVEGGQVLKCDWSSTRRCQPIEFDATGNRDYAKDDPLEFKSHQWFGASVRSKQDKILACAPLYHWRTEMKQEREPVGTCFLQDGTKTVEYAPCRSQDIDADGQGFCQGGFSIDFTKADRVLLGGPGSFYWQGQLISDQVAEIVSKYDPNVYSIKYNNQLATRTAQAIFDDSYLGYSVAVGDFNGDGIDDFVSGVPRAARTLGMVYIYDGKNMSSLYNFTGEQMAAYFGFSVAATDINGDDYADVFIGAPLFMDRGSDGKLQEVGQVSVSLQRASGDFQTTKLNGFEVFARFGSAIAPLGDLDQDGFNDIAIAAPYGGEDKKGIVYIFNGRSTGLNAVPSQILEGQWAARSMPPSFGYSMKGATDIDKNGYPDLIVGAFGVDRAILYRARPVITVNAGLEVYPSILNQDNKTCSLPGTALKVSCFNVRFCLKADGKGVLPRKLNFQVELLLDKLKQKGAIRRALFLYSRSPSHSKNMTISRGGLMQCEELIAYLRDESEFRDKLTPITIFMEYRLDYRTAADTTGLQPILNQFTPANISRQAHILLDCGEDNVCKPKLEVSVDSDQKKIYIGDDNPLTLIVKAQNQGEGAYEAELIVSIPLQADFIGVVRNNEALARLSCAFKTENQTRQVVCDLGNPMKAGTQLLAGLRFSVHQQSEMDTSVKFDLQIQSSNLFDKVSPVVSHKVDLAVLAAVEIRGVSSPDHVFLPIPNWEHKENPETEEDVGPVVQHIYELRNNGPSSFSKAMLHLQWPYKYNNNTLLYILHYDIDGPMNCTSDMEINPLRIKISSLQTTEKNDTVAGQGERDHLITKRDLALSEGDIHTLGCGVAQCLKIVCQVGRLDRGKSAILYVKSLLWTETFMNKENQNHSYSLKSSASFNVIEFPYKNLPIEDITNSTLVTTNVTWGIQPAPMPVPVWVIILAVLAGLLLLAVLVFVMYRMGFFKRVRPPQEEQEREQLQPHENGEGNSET
αVβ3 integrin (human), sequence (P05106 27-788, chain 2 of 2, further chain): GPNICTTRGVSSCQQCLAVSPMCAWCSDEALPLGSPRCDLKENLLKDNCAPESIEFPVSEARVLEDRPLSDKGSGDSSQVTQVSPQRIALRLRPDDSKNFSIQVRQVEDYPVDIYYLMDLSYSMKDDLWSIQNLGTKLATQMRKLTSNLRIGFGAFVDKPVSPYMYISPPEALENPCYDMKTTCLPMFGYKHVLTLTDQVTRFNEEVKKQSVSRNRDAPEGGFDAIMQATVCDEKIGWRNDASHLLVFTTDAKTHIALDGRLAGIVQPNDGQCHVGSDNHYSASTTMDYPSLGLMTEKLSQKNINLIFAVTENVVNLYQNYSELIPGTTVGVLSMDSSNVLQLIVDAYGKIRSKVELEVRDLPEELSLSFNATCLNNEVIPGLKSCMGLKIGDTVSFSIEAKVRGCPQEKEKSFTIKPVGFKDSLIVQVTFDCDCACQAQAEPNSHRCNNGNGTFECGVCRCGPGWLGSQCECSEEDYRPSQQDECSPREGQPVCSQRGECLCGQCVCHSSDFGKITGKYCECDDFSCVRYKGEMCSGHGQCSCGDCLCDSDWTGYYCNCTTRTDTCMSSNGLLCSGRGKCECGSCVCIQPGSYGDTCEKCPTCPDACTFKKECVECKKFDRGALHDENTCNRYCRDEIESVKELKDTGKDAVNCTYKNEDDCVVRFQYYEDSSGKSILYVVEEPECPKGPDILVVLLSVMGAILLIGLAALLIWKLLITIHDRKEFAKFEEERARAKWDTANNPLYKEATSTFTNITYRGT
αVβ5 integrin (human), sequence (P06756 31-1048, chain 1 of 2): as the sequence (P06756 31-1048, chain 1 of 2) above
αVβ5 integrin (human), sequence (P18084 24-799, chain 2 of 2, further chain): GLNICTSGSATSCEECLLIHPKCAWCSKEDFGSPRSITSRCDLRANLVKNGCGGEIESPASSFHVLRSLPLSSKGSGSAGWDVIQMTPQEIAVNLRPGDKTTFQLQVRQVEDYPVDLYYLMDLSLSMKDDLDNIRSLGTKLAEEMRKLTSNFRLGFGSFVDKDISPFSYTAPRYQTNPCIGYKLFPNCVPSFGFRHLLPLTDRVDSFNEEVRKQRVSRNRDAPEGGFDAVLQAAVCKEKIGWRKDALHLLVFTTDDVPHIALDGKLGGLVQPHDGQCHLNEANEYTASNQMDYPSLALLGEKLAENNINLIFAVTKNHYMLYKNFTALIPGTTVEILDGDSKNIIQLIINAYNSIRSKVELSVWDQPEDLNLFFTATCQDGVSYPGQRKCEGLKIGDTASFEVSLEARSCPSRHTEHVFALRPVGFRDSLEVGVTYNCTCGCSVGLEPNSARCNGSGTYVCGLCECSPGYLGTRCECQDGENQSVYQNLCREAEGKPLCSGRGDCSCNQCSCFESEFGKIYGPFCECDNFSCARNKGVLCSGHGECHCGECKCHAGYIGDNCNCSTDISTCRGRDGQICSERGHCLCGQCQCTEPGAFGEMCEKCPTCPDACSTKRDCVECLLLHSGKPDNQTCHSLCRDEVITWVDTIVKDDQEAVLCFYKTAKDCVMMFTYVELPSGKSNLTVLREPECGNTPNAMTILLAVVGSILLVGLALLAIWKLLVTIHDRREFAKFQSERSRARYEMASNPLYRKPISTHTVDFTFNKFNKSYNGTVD

RGD-L-TRAIL (human TRAIL variant: short peptide …, connecting peptide of five glycines, TRAIL) (from UniProt P50591 114-281)
fold reduction of the medial lethal dose against wild-type TRAIL, COLO-205 cells (αVβ3 integrin (human)): 9.5 times | fold reduction of the medial lethal dose against wild-type TRAIL, Jurkat cells (αVβ3 integrin (human)): 16.3 times | fold reduction of the medial lethal dose against wild-type TRAIL, MDA-MB-231 cells (αVβ3 integrin (human)): 1.9 times | fold reduction of the medial lethal dose against wild-type TRAIL, COLO-205 cells (αVβ5 integrin (human)): 9.5 times | fold reduction of the medial lethal dose against wild-type TRAIL, Jurkat cells (αVβ5 integrin (human)): 16.3 times | fold reduction of the medial lethal dose against wild-type TRAIL, MDA-MB-231 cells (αVβ5 integrin (human)): 1.9 times | apoptosis rate of COLO-205 cells at 2.43 ng/ml (Annexin V-FITC and PI double staining) (death receptor): 87.5% | caspase-8 and caspase-3 activity in Jurkat cells after two hours, against the same dose of wild-type TRAIL (death receptor): 2.5 times | medial lethal dose on COLO-205 cells (death receptor): 0.37 ng/mL | medial lethal dose on Jurkat cells (death receptor): 0.41 ng/mL | medial lethal dose on MDA-MB-231 cells (death receptor): 1.2 ng/mL
